# According to the supplement of paper PMC7125110:
# ± gives the standard error. Fewer inactive variants are shown than the library holds.
# B1: glmS ribozyme (parent)
# chain: AUAAAAGCGCCAGAACUACAGAAAUGUAGUUGACGAGGAGGAGGUUUAUCGAAUUUUCGGCGGAUGCCUCCAAA
# Variants of: B1
# Experiment: self-cleavage kobs at 2500 uM GlcN6P; higher = faster cleavage; RNA array
# Conditions: with glucosamine-6-phosphate
# How it was run: (§1)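 Using a hybridised Cy3 probe at 37 °C, barcoded ribozyme variants transcribed in situ by E. coli RNA polymerase on sequenced MiSeq chips were monitored across tiles imaged over ~14 h. The flow contained glucosamine-6-phosphate from 40 μM to 10 mM in HEPES/KCl/Mg(OAc)2 buffer. Signals were normalised to baseline and to non-cleaving reference variants before per-tile medians were fit to one- or two-exponential decays to yield kobs. Weighted Michaelis–Menten fits across concentrations gave kcat and KM.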
row,Variant,self-cleavage kobs at 2500 uM GlcN6P [s⁻¹]
1,A6G A36C U54G G62U,< 1e-05
2,A6G A12G A33U A36C,< 1e-05
3,U54A U65A C68G,0.000194 ± 6.9e-05
4,U2C A53C,0.00726 ± 0.0019
5,A6C A14G G35A U57A G66C C68U,< 1e-05
6,A52G G66A,0.000203 ± 4.6e-05
7,U47C A52G G66A,0.000112 ± 2.4e-05
8,A53U U55C U65A,0.000947 ± 0.00018
9,A48G A53G C67G,6.1e-05 ± 2.3e-05
10,A6G A42U A48C U54C U69A,< 1e-05
11,A6G A14G G40A,3.86e-05 ± 1.1e-05
12,C61G G62A,< 1e-05
13,A5U C10G A42U U57C C70A,< 1e-05
14,A6G A36U A48U C50U,< 1e-05
15,U56C G66C,8.66e-05 ± 2.4e-05
16,U47A U49G,7.57e-05 ± 1.8e-05
17,A6G A12C U56G,5.25e-05 ± 2.1e-05
18,C61G C70G C71G,8.65e-05 ± 2.4e-05
19,C58G C68A U69G,5.37e-05 ± 2.4e-05
20,U55G G66C C70U,0.000343 ± 8.7e-05

# Variants of: B1
# Experiment: self-cleavage kobs at 640 uM GlcN6P; higher = faster cleavage; RNA array
# Conditions: with glucosamine-6-phosphate
# How it was run: as §1
row,Variant,self-cleavage kobs at 640 uM GlcN6P [s⁻¹]
1,U55G G62A G63U,< 1e-05
2,C61G A64G C71G,0.000141 ± 3.7e-05
3,U54A U65A C68G,5.85e-05 ± 2.8e-05
4,C58U A64C C71A,< 1e-05
5,A52G G66A,0.000162 ± 3e-05
6,U49C C61A,< 1e-05
7,U47C A52G G66A,5.64e-05 ± 1.2e-05
8,A53U U55C U65A,0.00055 ± 9.7e-05
9,A48G A53G C67G,6.02e-05 ± 2.2e-05
10,G59U G62A,< 1e-05
11,C61G G62A,< 1e-05
12,C50G C61U C67U,0.000213 ± 4.4e-05
13,C58A C61G C68U,0.000169 ± 7.3e-05
14,U47G G63U C68G,6.95e-05 ± 3.1e-05
15,C61G C68U U69A,< 1e-05
16,U56C G66C,6.26e-05 ± 2.2e-05
17,C50G A52U C70U,0.000121 ± 5e-05
18,G59A G60U C67U,< 1e-05
19,U49C C58U G66A,< 1e-05
20,U54A G59U C68U C70G,< 1e-05
21,U47A U49G,3.82e-05 ± 1.4e-05
22,A48U U49A C68A,< 1e-05
23,C61G C70G C71G,0.000223 ± 8.8e-05
24,C58G C68A U69G,0.000107 ± 3.5e-05
25,A52C U56C C67U,< 1e-05
26,U55G G66C C70U,0.000456 ± 0.0001

# Variants of: B1
# Experiment: self-cleavage kobs at 10000 uM GlcN6P; higher = faster cleavage; RNA array
# Conditions: with glucosamine-6-phosphate
# How it was run: as §1
row,Variant,self-cleavage kobs at 10000 uM GlcN6P [s⁻¹]
1,U55G G62A G63U,< 1e-05
2,A52G G66A,0.000481 ± 0.00017
3,A53U U55C U65A,0.00137 ± 0.00021
4,G59U G62A,< 1e-05
5,A6G A12C U56G,5.92e-05 ± 1.5e-05
